Results taken from patent US20250043319A1, “BIOSYNTHESIS OF CYCLOLAVANDULYL DERIVATIVES OF AROMATIC COMPOUNDS” (Invizyne Technologies, Inc., priority 2022, published 2025).

Key:
Format in all cases: biochemical
Details in all cases: cell-free reaction with CLDS and DMAPP (CLPP donor), 28° C., 48 hours, QTOF LC/MS, with vs without prenyltransferase
[1] = cell-free cyclolavandulylation activity screening of prenyltransferases, substrate resveratrol
Text: (§1) Genes encoding the following prenyltransferases were codon-optimized, synthesized, and cloned into the pET28a vector for protein expression and isolation/purification as described in Example 1. • NphB (Accession: 1ZB6_A) (SEQ ID NO: 8) • AbPT (Accession: KPI30840.1) (SEQ ID NO: 9) • SkPT (Accession: Q2L6E3.1) (SEQ ID NO: 10) • SvPT (Accession: WP_078899560.1) (SEQ ID NO: 11) • Sr1310PT (Accession: WP_057602682.1) (SEQ ID NO: 12) • NapT8 (Accession: ABS50461.1) (SEQ ID NO: 13) • NapT9 (Accession: ABS50490.1) (SEQ ID NO: 14) • Mcl23PT (Accession: AGH68908.1) (SEQ ID NO: 15) • CnqP3PT (Accession: WP_047018069.1) (SEQ ID NO: 16) • AtaWTPT (Accession: AMB20850.1) (SEQ ID NO: 17) • MzPT1 (Accession: WP_135330628.1) (SEQ ID NO: 18) • MzPT2 (Accession: WP_135330626.1) (SEQ ID NO: 19) B. Cell-Free Biosynthesis Reaction with CLPP and Various Aromatic Substrates
(§2) The cyclolavandulyl diphosphate synthase, CLDS was prepared as described in Example 1 and used in the synthesis of CLPP.
(§3) Stocks of the various aromatic compounds used as substrates for cyclolavandulylation activity screening were obtained from the following commercial sources: • Resveratrol (Fisher Scientific) 200 mM stock in DMSO • Luteolin (Fisher Scientific) 200 mM stock in DMSO • Naringenin (Fisher Scientific) 200 mM stock in DMSO • Tryptamine (Fisher Scientific) 200 mM stock in DMSO • Tryptophan (Fisher Scientific) 40 mM stock in water • Olivetolic acid (Toronto Research Chemicals) 200 mM stock in DMSO • Divarinic acid (Toronto Research Chemicals) 200 mM stock in DMSO • Phorolic acid (prepared in house) 200 mM stock in DMSO • Olivetol (Fisher Scientific) 200 mM stock in DMSO • Screening for cell-free biosynthesis was carried out as follows. 10 mM DMAPP, 5 mM MgCl2, 100 mM Tris-HCl (pH=8), and 4 mg/mL CLDS (SEQ ID NO: 4) were combined in a 6.80 mL reaction, which was incubated at 28° C. for 48 hours. This mixture was aliquoted into a 96-well plate (80 μL per well). The various prenyltransferases (18 μL, ˜1 g/L final concentration) listed above were screened across various substrates (2 μL of stock solution, variable concentration shown above), which were added to the wells and incubated at 28° C. for an additional 48 hours.
(§4) Analysis of the reaction mixture was carried out as follows: 50 μL of the reaction mixture were added to 1 mL MeOH. The resulting solution was vortexed, centrifuged at 17,200 g for 5 minutes, and transferred to an HPLC vial for analysis. HRMS-QTOF analyses of the cell free reactions was performed on an Agilent Technologies 6545 Accurate Mass QTOF LC/MS with a reverse-phase column (Agilent Infinity Lab Poroshell 120 ECC18, 2.7 μm, 3.0×50 mm) using positive ESI with 1% MeCN—H2O (0.1% FA) for 2 min followed by a linear gradient of 1-99% MeCN—H2O (0.1% FA) for 14 min with a flow rate of 0.4 mL/min.
(§5) Mass spectrometric (MS) analysis of chromatograms was carried out using MassHunter Qualitative Analysis 10.0. Targeted metabolomics using the exact m/z of the calculated proton adduct [H^+] in the presence and absence of prenyltransferase indicated the presence of cyclolavandulylated product.

[2] = cell-free cyclolavandulylation activity screening of prenyltransferases, substrate luteolin
Text: as §1, §2, §3, §4, §5

[3] = cell-free cyclolavandulylation activity screening of prenyltransferases, substrate naringenin
Text: as §1, §2, §3, §4, §5

[4] = cell-free cyclolavandulylation activity screening of prenyltransferases, substrate tryptamine
Text: as §1, §2, §3, §4, §5

[5] = cell-free cyclolavandulylation activity screening of prenyltransferases, substrate tryptophan
Text: as §1, §2, §3, §4, §5

[6] = cell-free cyclolavandulylation activity screening of prenyltransferases, substrate olivetolic acid
Text: as §1, §2, §3, §4, §5

B1: SvPT: prenyltransferase, Accession: WP_078899560.1, SEQ ID NO: 11 (protein, listed as Streptomyces sp.)
chain: MSEASELADIYSAIEETAQLLDVPCSRDKVQPALAAFGDGLADAHIVFSMATGERYKGELAFDFTVPTAAGDPYAIALANGLVEETDHPIRTLFSDVQKRCPVDSYGVDYGIVGGFKKTYISFPLGDLQRLSALVGIPSMPRALAEHADFFASHGLDDKVSAIAIDYAHRTWNVYFSGIPAEVKEPQTLQSVLQKFGLPEPSEQLMDFIRTSFAMYTTFGWDSTKAERICFSARSSDPTALPAQFEPQIGKFAKSAPYTYTGERVLTYAGALSPSEEFYKLATFYQKTSKLSDRVRPAT
No: presence of cyclolavandulylated product, Aromatic Compound (Substrate) Resveratrol [1] | presence of cyclolavandulylated product, Aromatic Compound (Substrate) Luteolin [2] | presence of cyclolavandulylated product, Aromatic Compound (Substrate) Naringenin [3] | presence of cyclolavandulylated product, Aromatic Compound (Substrate) Tryptamine [4] | presence of cyclolavandulylated product, Aromatic Compound (Substrate) Tryptophan [5] | presence of cyclolavandulylated product, Aromatic Compound (Substrate) Olivetolic Acid [6]

B2: Sr1310PT: prenyltransferase, Accession: WP_057602682.1, SEQ ID NO: 12 (protein, listed as Streptomyces sp.)
chain: MSGAADVERVYAAMEEAAGLLDVSCAREKIYPLLTVFQDTLTDGVVVFSMASGRRSTELDFSISVPVSQGDPYATVVKEGLFQATGSPVDELLADTVAHLPVSMFAIDGEVTGGFKKTYAFFPTDDMPGVAQLAAIPSMPASVAENAELFARYGLDKVQMTSMDYKKRQVNLYFSDLKQEYLQPESVVALARELGLRVPGELGLEFCKRSFAVYPTLNWDTGKIDRLCFAAISTDPTLVPSEDERDIEMFRNYATKAPYAYVGEKRTLVYGLTLSSTEEYYKLGAYYHITDIQRQLLKAFDALED
No: presence of cyclolavandulylated product, Aromatic Compound (Substrate) Resveratrol [1] | presence of cyclolavandulylated product, Aromatic Compound (Substrate) Luteolin [2] | presence of cyclolavandulylated product, Aromatic Compound (Substrate) Naringenin [3] | presence of cyclolavandulylated product, Aromatic Compound (Substrate) Tryptamine [4] | presence of cyclolavandulylated product, Aromatic Compound (Substrate) Tryptophan [5] | presence of cyclolavandulylated product, Aromatic Compound (Substrate) Olivetolic Acid [6]

B3: MzPT2: prenyltransferase, Accession: WP_135330626.1, SEQ ID NO: 19 (protein, listed as Streptomyces sp.)
chain: MSGTAVEKLYSAIEETAGLLDVTCSRDKVWPVLASFEDAIPQAAILFRVATDKRHAGELNLHFMMLPGDVDPYALALSNDLMAKTEHPVGSLLSDIAERFPVESYGIDFGVVKGFQKTWSCFPGNSMQSLSKLAEVPSVPSSLAGNLDFFSRYGLDENVTLVGIDFEHRTMNVYFGEVAELLEPDAVKSMLRDLEMPEPSEQLLNFAKQSFGFYATLSWDSPRIERFCYAAIAPDPMALLDQVEPKIEHFLKTVPYGVDDPKAVYAATSPNDGEFYKIQSYYQWRPRLVNHMHTSVSDSGE
No: presence of cyclolavandulylated product, Aromatic Compound (Substrate) Resveratrol [1] | presence of cyclolavandulylated product, Aromatic Compound (Substrate) Luteolin [2] | presence of cyclolavandulylated product, Aromatic Compound (Substrate) Naringenin [3] | presence of cyclolavandulylated product, Aromatic Compound (Substrate) Tryptamine [4] | presence of cyclolavandulylated product, Aromatic Compound (Substrate) Tryptophan [5] | presence of cyclolavandulylated product, Aromatic Compound (Substrate) Olivetolic Acid [6]

B4: NapT8: prenyltransferase, Accession: ABS50461.1, SEQ ID NO: 13 (protein, listed as Streptomyces aculeolatus)
chain: MEGLYAAIEEASGLLDVAPSRDKVWPILSAYELDKVVVAFRVTTRGSKDLDCRFTALPADVNPYRYAVSKGIAEATDHPVGTLLDDVQANIPVTAHGVDFGVVEGFRKTWTFLPGNDLQKLSKVAALPSMPPSLAENLDFYARYGLDDKNSMIGIDYPSRTVNVYFLQFPDETREPETVRAMLRDLGLPEPSEQMLTLAKQAVGIYTTLTWDSPKIQRITFATLVPDAEALPGRIAVEPSVEKFARNVPHTYPGPVQGLYNVASYSGGEYFKLQTYHQLAEGSLEARVLLGAAGAGS
No: presence of cyclolavandulylated product, Aromatic Compound (Substrate) Resveratrol [1] | presence of cyclolavandulylated product, Aromatic Compound (Substrate) Luteolin [2] | presence of cyclolavandulylated product, Aromatic Compound (Substrate) Naringenin [3] | presence of cyclolavandulylated product, Aromatic Compound (Substrate) Tryptamine [4] | presence of cyclolavandulylated product, Aromatic Compound (Substrate) Tryptophan [5] | presence of cyclolavandulylated product, Aromatic Compound (Substrate) Olivetolic Acid [6]

B5: SkPT: prenyltransferase, Accession: Q2L6E3.1, SEQ ID NO: 10 (protein, listed as Streptomyces sp.)
chain: MPGTDDVAVDVASVYSAIEKSAGLLDVTAAREVVWPVLTAFEDVLEQAVIAFRVATNARHEGDFDVRFTVPEEVDPYAVALSRSLIAKTDHPVGSLLSDIQQLCSVDTYGVDLGVKSGFKKVWVYFPAGEHETLARLTGLTSMPGSLAGNVDFFTRYGLADKVDVIGIDYRSRTMNVYFAAPSECFERETVLAMHRDIGLPSPSEQMFKFCENSFGLYTTLNWDTMEIERISYGVKTENPMTFFARLGTKVEHFVKNVPYGVDTQKMVYAAVTSSGEEYYKLQSYYRWRSVSRLNAAYIAARDKEST
No: presence of cyclolavandulylated product, Aromatic Compound (Substrate) Resveratrol [1] | presence of cyclolavandulylated product, Aromatic Compound (Substrate) Luteolin [2] | presence of cyclolavandulylated product, Aromatic Compound (Substrate) Naringenin [3] | presence of cyclolavandulylated product, Aromatic Compound (Substrate) Tryptamine [4] | presence of cyclolavandulylated product, Aromatic Compound (Substrate) Tryptophan [5] | presence of cyclolavandulylated product, Aromatic Compound (Substrate) Olivetolic Acid [6]

B6: CnqP3PT: prenyltransferase, Accession: WP_047018069.1, SEQ ID NO: 16 (protein, listed as Streptomyces sp.)
chain: MSGAADVERVYSAMEEAARLLDITVSREKVRPALEAYHEVLADAVVVFSMASGRYATELDFSISVPAEAGDPYRVALAKGLTPRTDHPVGRLLADTQEHCPVSMFAFDGEITGGFKKTYAFFPTNDLQSASKLAEIPSMPDSVKENADLFARYGLDKVQMTSIDYKKKAVNLYFSEMSPDILGPDTVRSMLRDMGLKETGETGLTFARRSFSVYPTLNWETGRIERLCFAVISRDPTLAPAERAEDLAKFSKYANNAPYAYAGEARTLVYGLTLTPREEYYKLGSYYQISDIQRKLLKAFDSLND
No: presence of cyclolavandulylated product, Aromatic Compound (Substrate) Resveratrol [1] | presence of cyclolavandulylated product, Aromatic Compound (Substrate) Luteolin [2] | presence of cyclolavandulylated product, Aromatic Compound (Substrate) Naringenin [3] | presence of cyclolavandulylated product, Aromatic Compound (Substrate) Tryptamine [4] | presence of cyclolavandulylated product, Aromatic Compound (Substrate) Tryptophan [5] | presence of cyclolavandulylated product, Aromatic Compound (Substrate) Olivetolic Acid [6]

B7: Mcl23PT: prenyltransferase, Accession: AGH68908.1, SEQ ID NO: 15 (protein, listed as Streptomyces sp.)
chain: MSGETDAEELCSAIEETARLVGAPCSREKIWPILTEYRSGFAEGGVVFSAQAGENHAGELDYGLAVPPRIDDPYAHALAHGFVTETDHPVAALLSDIRERCAVTEHFADCGVVGGFRKLYAHFPRDLQKVSEIADIPSMPRAVAENVGLFTRYGLENVVMVGVNYKNKTVSLYFQFTAEGRPRPSAIRSMLGDIGMTEPNERMLDFASNSFRANITLSWDSPKILRVAFAPPPGAGLNLSTVPIPTGPHLEDFVTRAPRAYDGERMNLFAVKWTQDKEFLEVCSYYQLPAGYEPIRQMEIHKEQG
No: presence of cyclolavandulylated product, Aromatic Compound (Substrate) Resveratrol [1] | presence of cyclolavandulylated product, Aromatic Compound (Substrate) Luteolin [2] | presence of cyclolavandulylated product, Aromatic Compound (Substrate) Naringenin [3] | presence of cyclolavandulylated product, Aromatic Compound (Substrate) Tryptamine [4] | presence of cyclolavandulylated product, Aromatic Compound (Substrate) Tryptophan [5] | presence of cyclolavandulylated product, Aromatic Compound (Substrate) Olivetolic Acid [6]
